The values that follow come from the supplement of paper PMC10567573.

The data set can be described thus: protein stability index of a GFP-peptide fusion (GPS, HEK-293T) (PSI 1-6); higher = more stable.
[1] abbreviates: treatment: DMSO, c terminus: a fixed tail appended.
The mark [2] stands for this setting: treatment: MLN4924 1 uM, 8 h, c terminus: a fixed tail appended.

± gives the standard deviation.
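Further: 24-mer peptide tiles fused after GFP, lentivirally expressed, FACS-sorted into six equal bins by GFP/DsRed ratio, decoded by Illumina sequencing, PSI is the read-weighted mean bin number.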

On to TLIDGGEHYWEVRYEPDSKAFGVG [FSD1], for which the protein stability index is 2.65 ± 0.27 under setting [1] and 2.86 ± 0.39 under setting [2].

Consider TLPPASRFIIIFEQIRFVMKAHSF [SOAT1], for which the protein stability index came out at 2.31 ± 0.48 under setting [1] and 2.57 ± 0.74 under setting [2].

As to TLQDLVFDECGITDDQLLALLPSL [PRAME], the protein stability index reads like this: under setting [1], 2.84 ± 0.26; under setting [2], 3.03 ± 0.34.

In turn, TLSEAYIQIWKRRDNDETNQQGA [USP39] returned a protein stability index (treatment: DMSO, c terminus: native) of 2.52 ± 0.65 and a protein stability index (treatment: MLN4924 1 uM, 8 h, c terminus: native) of 3.24 ± 0.42.

As for TMSRSLDGASVNENHEIYMKDSMS [EPB41L3], the protein stability index stood at 5 ± 0.17 under setting [1] and 4.72 ± 0.43 under setting [2].

TNIRLPNVPSSSLPAQPNRKPGMS [CHMP4C] returned a protein stability index under setting [1] of 4.66 ± 0.28 and a protein stability index under setting [2] of 4.51 ± 0.45.

Take TNNPRFDKMEGNPICVQIPWDKNP [CRY1]: the protein stability index is, setting by setting: under setting [1], 3.47 ± 0.3; under setting [2], 3.69 ± 0.25.

The sequence TNVKFLAITTDCLQILAYGNQESK [CTNNB1] showed a protein stability index under setting [1] of 2 ± 0.2 and a protein stability index under setting [2] of 2.17 ± 0.16.

As to TPDTRHPCSLGSSLVADYSDSESE [YJU2B], the protein stability index was 5.39 ± 0.23 under setting [1] and 5.59 ± 0.25 under setting [2].

As to TPLEPDAKDLPCDSKPESALGAPS [TBX5], the protein stability index amounted to 5.41 ± 0.29 under setting [1] and 5.36 ± 0.23 under setting [2].

Consider TPSSYAPSHPPRPLLPLDMQGNQI [ZBTB22], for which the protein stability index worked out at 4.14 ± 0.1 under setting [1] and 4.3 ± 0.14 under setting [2].

For TQSVSECITEDGRTVAVGDIVWGK [PWWP2B], the protein stability index is, setting by setting: under setting [1], 4.09 ± 0.22; under setting [2], 4.25 ± 0.21.

Turning to TREGFGHSTSLKVPLARSLQISEE [LCOR], the protein stability index reads like this: under setting [1], 3.39 ± 0.44; under setting [2], 3.82 ± 0.22.

For TRIEKRIVITGDADIDHDQALAQA [EPB41L3], the protein stability index stood at 4.48 ± 0.27 under setting [1] and 4.72 ± 0.25 under setting [2].

In the case of TRILDGGNPFLDVPQALSATTYKH [PSD2], the protein stability index was 3.62 ± 0.17 under setting [1] and 3.73 ± 0.21 under setting [2].

In the case of TSFEPEALGNLVEGMDFHRFYFEN [CAMK2B], the protein stability index reads like this: under setting [1], 3.14 ± 0.27; under setting [2], 3.18 ± 0.26.

Consider TSFFDSDEDDSTSRFSSSTEQSSA [DVL3], for which the protein stability index is, setting by setting: under setting [1], 5.34 ± 0.085; under setting [2], 5.25 ± 0.22.

As to TSSQKALMLELKSLQEEPVEGFRI [UBE2R2], the protein stability index is 3.11 ± 0.31 under setting [1] and 3.3 ± 0.24 under setting [2].

Sequence TTSWGLLSLGALVALCWQLGLLFE [SCNN1D] gave a protein stability index under setting [1] of 2.11 ± 0.13 and a protein stability index under setting [2] of 2.13 ± 0.37.

As for TVRGATGIFPLSFVKILKDFPEED [NCF4], the protein stability index reads like this: under setting [1], 3.43 ± 0.51; under setting [2], 3.57 ± 0.4.

On to TYRRLLEDGEDFNLGDALDSSNSM [KRT18], for which the protein stability index is, setting by setting: under setting [1], 4.29 ± 0.14; under setting [2], 4.52 ± 0.21.

With VACGMVHLLIPELGACVAPGGNLI [DNAAF3], the protein stability index under setting [1] is 2.78 ± 0.27 and the protein stability index under setting [2] came out at 3.11 ± 0.26.

As for VAPLADGKVAVGQDDLTVVLNEEG [VPS39], the protein stability index by setting is: under setting [1], 5.46 ± 0.18; under setting [2], 5.59 ± 0.17.

Regarding VCLEYLKEPVIIECGHNFCKACIT [TRIM39], the protein stability index is, setting by setting: under setting [1], 2.38 ± 0.55; under setting [2], 2.28 ± 0.29.

Consider VDPDNVVLCLLAADEDDDRDVALQ [GADD45A], for which the protein stability index turned out to be 4.63 ± 0.38 under setting [1] and 4.77 ± 0.08 under setting [2].

For VEFVRHGDIIRLEHKETSRNLHSH [POMT2], the protein stability index reads like this: under setting [1], 3.02 ± 0.27; under setting [2], 3.04 ± 0.25.

In the case of VETLLRHGAHINLQSLKFQGGHGP [RIPK4], the protein stability index is 2.63 ± 0.39 under setting [1] and 3.11 ± 0.24 under setting [2].

Take VEVDTAPTVDLNQVLNETRSQYEA [KRT34]: the protein stability index was 5.2 ± 0.17 under setting [1] and 5 ± 0.32 under setting [2].

For VFHLPFYSSNQLHHFFCDIAPVLK [OR10K2], the protein stability index is, setting by setting: under setting [1], 2.23 ± 0.48; under setting [2], 2.12 ± 0.15.

Turning to VFLASKVEEFGVVSNTRLIAAATS [CCNC], the protein stability index is, setting by setting: under setting [1], 2.46 ± 0.68; under setting [2], 2.24 ± 0.35.

In the case of VGELNGYLRDSSPAPCADGPAGGL [PWWP2B], the protein stability index worked out at 4.29 ± 0.23 under setting [1] and 4.16 ± 0.068 under setting [2].

In the case of VGFMWRQRGRVISLWERLEFVNGW [MCOLN1], the protein stability index was 2.59 ± 0.65 under setting [1] and 3.05 ± 0.62 under setting [2].

For VGNISKDLGLAPRELAERGVRIVS [PCDHGA10], the protein stability index was determined as 3.57 ± 0.29 under setting [1] and 3.75 ± 0.42 under setting [2].

VGSGGRRDSTARRPRPQGRSVSEP [RTN2] gave a protein stability index under setting [1] of 5.09 ± 0.04 and a protein stability index under setting [2] of 5.19 ± 0.15.

With VGTESQGRDWRHLPTITSELSGAP [PXN], the protein stability index is, setting by setting: under setting [1], 4.21 ± 0.23; under setting [2], 4.21 ± 0.2.

On to VHEFCAGRECQPRWETSSWSECSR [ADAMTSL2], for which the protein stability index worked out at 2.42 ± 0.28 under setting [1] and 2.85 ± 0.53 under setting [2].

Turning to VHGDPAVWWVSQFVKYLIRPQPWL [FUT8], the protein stability index reads like this: under setting [1], 2.95 ± 0.34; under setting [2], 3.21 ± 0.6.

In the case of VHYMIHEPEPHILLFRRPLPKKPK [CKS1B], the protein stability index reads like this: under setting [1], 2.39 ± 0.23; under setting [2], 2.57 ± 0.35.

As for VIWDFLTRGIAKIISAHIHPVCSL [RBBP5], the protein stability index reads like this: under setting [1], 3.31 ± 0.46; under setting [2], 3.3 ± 0.35.

For the sequence VKEGGSYGFSLKTVQGKKGVYMTD [PDZK1], the protein stability index worked out at 3.39 ± 0.41 under setting [1] and 3.08 ± 0.53 under setting [2].

With VKGSRVTVMEKCSDGWWRGSYNGQ [NCK2], the protein stability index under setting [1] is 2.13 ± 0.47 and the protein stability index under setting [2] turned out to be 2.29 ± 0.34.

Take VLDFDFEKLCSISLSHINAYACLV [USP39]: the protein stability index is 2.83 ± 0.59 under setting [1] and 2.56 ± 0.53 under setting [2].

Consider VLLNSLQQYRQDQRDGSKSEDELD [CCND2], for which the protein stability index is, setting by setting: under setting [1], 4.32 ± 0.18; under setting [2], 4.15 ± 0.52.

Consider VLPPIHAYGNRTECRNPQELESIR [FEM1B], for which the protein stability index runs as follows: under setting [1], 4.14 ± 0.28; under setting [2], 4 ± 0.21.

Regarding VLVNVLQAIYVIDFFWNETWYLKT [DHCR7], the protein stability index amounted to 3.09 ± 0.25 under setting [1] and 3.22 ± 0.27 under setting [2].

For VNPWIIIGGVATVVCQPNEFIMPD [SEPHS2], the protein stability index under setting [1] was 2.67 ± 0.38 and the protein stability index under setting [2] came out at 3.05 ± 0.81.

As to VNQDILENKESWDKILALVPETIH [PRIM1], the protein stability index by setting is: under setting [1], 3.16 ± 0.19; under setting [2], 2.85 ± 0.32.

On to VPERLLVVLDMEEGTLGYAIGGTY [SPSB2], for which the protein stability index under setting [1] turned out to be 2.69 ± 0.74 and the protein stability index under setting [2] was 2.35 ± 0.56.

Turning to VPISVTGIAQVKIQGQNKEMLAAA [FLOT1], the protein stability index reads like this: under setting [1], 3.52 ± 0.27; under setting [2], 3.61 ± 0.13.

VPSKPPMSLEPQNGTYAGPAPAFQ [ANKRD40]: the protein stability index under setting [1] came to 4.12 ± 0.41 and the protein stability index under setting [2] stood at 4.25 ± 0.14.

Regarding VPVDTGVAARTPAVEGLTEAEEEE [TPD52L2], the protein stability index turned out to be 5.51 ± 0.15 under setting [1] and 5.4 ± 0.13 under setting [2].

Turning to VQIYNLSQNIQEDDLQQLQLFTEY [ATL3], the protein stability index was 2.44 ± 0.35 under setting [1] and 2.28 ± 0.27 under setting [2].

For VQLSDEMFVFQDGRWVNENCRLQS [CBY2], the protein stability index by setting is: under setting [1], 3.06 ± 0.26; under setting [2], 3.03 ± 0.34.
